In data set [1] the target is T1, Rv1222 (Mycobacterium tuberculosis H37Rv) (UniProt L0T905).
T1 sequence: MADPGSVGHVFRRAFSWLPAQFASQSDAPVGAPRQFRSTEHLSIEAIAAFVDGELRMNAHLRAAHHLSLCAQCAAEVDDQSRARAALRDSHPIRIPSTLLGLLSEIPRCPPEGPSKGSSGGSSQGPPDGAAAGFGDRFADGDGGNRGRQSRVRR
Nature of the data set: fluorescence anisotropy.

For data set [2], the target named is E. coli DNA polymerase (Klenow fragment) (E. coli, UniProt P00582 324-928). Nature of the data set: fluorescence polarisation. A general note: Fluorescence polarisation rises when a labelled molecule tumbles more slowly, as on binding a larger partner.
The target of data set [3] is T2, Mycobacterium tuberculosis sigma factor E (Mycobacterium tuberculosis, UniProt P9WGG7 1-257).
T2 sequence: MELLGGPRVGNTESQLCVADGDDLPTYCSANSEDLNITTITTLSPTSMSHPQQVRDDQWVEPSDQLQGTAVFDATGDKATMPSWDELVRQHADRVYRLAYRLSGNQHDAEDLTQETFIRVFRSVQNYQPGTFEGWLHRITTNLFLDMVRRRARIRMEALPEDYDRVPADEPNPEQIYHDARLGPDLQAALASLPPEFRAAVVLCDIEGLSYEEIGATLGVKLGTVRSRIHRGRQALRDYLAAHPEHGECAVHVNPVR
Nature of the data set: fluorescence polarisation.

Data set [4] concerns the target T3, Mycobacterium tuberculosis sigma factor A (Mycobacterium tuberculosis, UniProt P9WGI1 1-528).
T3 sequence: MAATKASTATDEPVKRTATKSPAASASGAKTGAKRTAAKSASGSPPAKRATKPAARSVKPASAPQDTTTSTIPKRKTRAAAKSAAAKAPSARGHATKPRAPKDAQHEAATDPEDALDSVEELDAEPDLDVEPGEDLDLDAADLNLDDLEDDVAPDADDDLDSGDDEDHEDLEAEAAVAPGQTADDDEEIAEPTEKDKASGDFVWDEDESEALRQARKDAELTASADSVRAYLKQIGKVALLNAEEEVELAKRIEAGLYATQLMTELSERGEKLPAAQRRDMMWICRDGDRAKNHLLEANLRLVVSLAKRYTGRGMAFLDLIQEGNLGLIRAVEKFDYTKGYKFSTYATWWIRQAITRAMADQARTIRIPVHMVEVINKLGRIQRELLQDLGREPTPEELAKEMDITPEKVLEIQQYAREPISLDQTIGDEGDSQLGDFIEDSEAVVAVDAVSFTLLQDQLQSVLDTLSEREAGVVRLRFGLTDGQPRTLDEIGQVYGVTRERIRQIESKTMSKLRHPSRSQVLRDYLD
Nature of the data set: fluorescence polarisation.

Usually Kd stands for the free concentration of one partner at which half of the binding sites on the other are occupied at equilibrium, for simple one-to-one binding.

E. coli DNA polymerase (Klenow fragment), sequence (P00582 324-928): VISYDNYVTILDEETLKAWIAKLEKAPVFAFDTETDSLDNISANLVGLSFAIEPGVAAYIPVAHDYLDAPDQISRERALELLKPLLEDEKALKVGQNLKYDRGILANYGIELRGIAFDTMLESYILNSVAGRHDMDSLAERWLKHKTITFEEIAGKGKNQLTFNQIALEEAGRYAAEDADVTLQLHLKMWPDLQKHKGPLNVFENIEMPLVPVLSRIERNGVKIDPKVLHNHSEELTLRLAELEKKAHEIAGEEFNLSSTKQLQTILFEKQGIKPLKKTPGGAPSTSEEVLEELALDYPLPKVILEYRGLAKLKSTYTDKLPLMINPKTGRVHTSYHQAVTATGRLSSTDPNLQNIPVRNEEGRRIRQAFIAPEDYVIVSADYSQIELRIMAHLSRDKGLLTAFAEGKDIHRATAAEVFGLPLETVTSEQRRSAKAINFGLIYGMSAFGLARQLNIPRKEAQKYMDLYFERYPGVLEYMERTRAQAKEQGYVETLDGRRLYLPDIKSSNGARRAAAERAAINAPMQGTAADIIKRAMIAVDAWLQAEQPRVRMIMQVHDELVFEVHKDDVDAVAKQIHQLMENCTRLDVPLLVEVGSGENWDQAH

“GTGAGTATCTCGCAGTCCGACGCGTCGTTGGCCGCCGTCCCCGCCGTGGATCAGTTCGATCCGTCGTCAGGTGCATCAGGTGGCTACGACACCCCGCTGGGCATCACCAATCCGCCCATCGACGAGTTGCTGGACCGCGTCTCGAGCAAATACGCCCTCGTGATCTATGCGGCAAAGCGTGCCCGGCAGATCAACGACTACTACAACCAGCTTGGCGAGGGCATCCTCGAATATGTCGGTCCGCTGGTTGAGCCGGGGTTGCAAGAGAAGCCGTTGTCCATCGCGTTGCGCGAGATCCACGCCGATCTGCTCGAGCACACCGAGGGCGAGTAG (double strand) [promoterless DNA fragment]”: in data set [1], the Kd came to 52 nM.

B1: Rv1222 of Mycobacterium tuberculosis, TMR labelled (natural protein)
chain: MADPGSVGHVFRRAFSWLPAQFASQSDAPVGAPRQFRSTEHLSIEAIAAFVDGELRMNAHLRAAHHLSLCAQCAAEVDDQSRARAALRDSHPIRIPSTLLGLLSEIPRCPPEGPSKGSSGGSSQGPPDGAAAGFGDRFADGDGGNRGRQSRVRR
On to B1, for which the results for the Kd in data set [2], in data set [3] and in data set [4] were 245 ± 78 nM, ~270 nM and ~690 nM, respectively.

For the origin of these results see paper PMC4499140 (Nucleic Acids Research, 2015).
